From patent publication US20200113997A1

Columns and labels:
Man9-V3 glycopeptide = test: BLI
[1] = target: Man9-V3 glycopeptide (HIV-1 (clade B JRFL mini-V3)); test: BLI, biotinylated peptide on streptavidin sensor, bivalent avidity model

B1: DH270.IA3 (protein)
chain 1: QVQLVQSGAEVKKPGASVKVSCKASGYTFTDYYIHWVRQAPGQGLEWMAWINPTTGRTNYARKFQGRVTMTRDTSISTAYMELRRLRSDDTAVYYCARGGWIGLYVDYSGYPNFDSWGQGTLVTVSS
chain 2: QSALTQPASVSGSPGQSITISCTGTSYDVGSYNLVSWYQQHPGKAPKLMIYEVSKWPSGVSNRFSGSKSGNTASLTISGLQAEDEADYYCCSYAGSSTVIFGGGTKLTVL
- Kd (Man9-V3 glycopeptide): > 10 µM

B2: DH270.IA2 (protein)
chain 1: QVQLVQSGAEMKKPGASVKVSCKASGYTFTDYYIHWVRQAPGQGLEWMGWINPNTGRTNYAQKFQGRVTMTRDTSISTAYMELSRLTSDDTAVYYCATGGWIGLYYDSSGYPNFDYWGQGTLVTVSS
chain 2: QSALTQPASVSGSPGQSITISCTGTSYDVGSYNLVSWYQQHPGKAPKYMIYEVNKRPSGVSNRFSGSKSGNTASLTISGLQAEDEADYYCCSYAGSSTVIFGGGTKLTVL
- Kd (Man9-V3 glycopeptide): > 10 µM

B3: DH270.IA1 (protein)
chain 1: QVQLVQSGAEVKKPGASVKVSCKASGYTFTDYYIHWVRQAPGQGLEWMGWINPNTGRTNYAQKFQGRVIMTRDTSISTAYMELSRLRSDDTAVYYCARGGWIGLYYDSSGYPNFDYWGQGTLVTVSS
chain 2: QSALTQPASVSGSPGQSITISCTGTSYDVGSYNLVSWYQQHPGKAPKLMIYEVSKRPSGVSNRFSGSKSGNTASLTISGLQAEDEADYYCCSYAGSSTVIFGGGTKLTVL
- Kd (Man9-V3 glycopeptide): 3.29 µM

B4: DH270.6 (antibody, V domains shown)
VH: QVQLVQSGAQMKNPGASVKVSCAPSGYTFTDFYIHWLRQAPGQGLQWMGWMNPQTGRTNTARNFQGRVIMTRDTSIGTAYMELRSLTSDDTAIYYCTTGGWISLYYDSSYYPNFDHWGQGTLLTVSS
VL: TSLLTQPASVSGSPGQSITISCTGTKYDVGSHDLVSWYQQYPGKVPKYMIYEVNKRPSGVSNRFSGSKSGNTASLTISGLRAEDEADYYCCSFGGSATVVCGGGTKVTVL
- Kd [1]: 0.188 µM
